These results are taken from patent US20150344570A1 (published 2015).

Assay [1] deals with T1, FcγRIa extracellular domain with C-terminal His tag (human, UniProt P12314 16-292).
T1 construct: extracellular domain; expressed in FreeStyle293 cells; analyte in Biacore; also called FcgRI; 1a
Description: SPR (Biacore), captured antibody, FcγR as analyte; relative binding. On the technique in general: Surface plasmon resonance follows binding to a sensor surface in real time, without labels.

In assay [2] the target is T2, FcγRIIb extracellular domain with C-terminal His tag (human, UniProt P31994 43-217).
T2 construct: extracellular domain; expressed in FreeStyle293 cells; analyte in Biacore; also called FcgRIIb; 2b
T2 sequence (looked up): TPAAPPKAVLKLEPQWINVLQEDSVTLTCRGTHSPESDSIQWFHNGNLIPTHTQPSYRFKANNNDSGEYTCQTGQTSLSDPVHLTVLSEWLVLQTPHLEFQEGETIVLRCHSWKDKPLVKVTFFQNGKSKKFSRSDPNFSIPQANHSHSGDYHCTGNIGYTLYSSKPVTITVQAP
Described as above.

T1 sequence (P12314 16-292): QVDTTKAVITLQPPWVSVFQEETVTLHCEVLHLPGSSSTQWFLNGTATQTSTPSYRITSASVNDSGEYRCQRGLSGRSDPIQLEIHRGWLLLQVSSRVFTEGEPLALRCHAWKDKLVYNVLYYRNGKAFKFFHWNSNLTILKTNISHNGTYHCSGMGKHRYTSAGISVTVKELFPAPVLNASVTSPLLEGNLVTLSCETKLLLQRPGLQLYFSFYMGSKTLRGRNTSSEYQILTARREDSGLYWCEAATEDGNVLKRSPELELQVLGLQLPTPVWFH

B1: GpH7-A5/GpH7-B3 variant Y296_08L/GpL16-k0 (antibody, human IgG1, kappa)
heavy 1: not shown
heavy 2: not shown
light: DIVMTQSPLSLPVTPGEPASISCQASESLVHSNRNTYLHWYLQKPGQSPQLLIYKVSNRFSGVPDRFSGSGSGTDFTLKISRVEAEDVGVYYCSQNTHVPPTFGQGTKVEIERTVAAPSVFIFPPSDEQLKSGTASVVCLLNNFYPREAKVQWKVDNALQSGNSQESVTEQDSKDSTYSLSSTLTLSKADYEKHKVYACEVTHQGLSSPVTKSFNRGEC
notes: He Ab; IgG1, mutation in one H chain
With B1, the He/Con_1a in assay [1] is 104 % of HeCon Ab (GpH7-A5/GpH7-B3/GpL16-k0 = 100). For the same molecule, in assay [2], the He/Con_2b was 82.3 % of HeCon Ab (GpH7-A5/GpH7-B3/GpL16-k0 = 100).

B2: GpH7-A5/GpH7-B3 variant Y300_06M/GpL16-k0 (antibody, human IgG1, kappa)
heavy 1: not shown
heavy 2: not shown
light: DIVMTQSPLSLPVTPGEPASISCQASESLVHSNRNTYLHWYLQKPGQSPQLLIYKVSNRFSGVPDRFSGSGSGTDFTLKISRVEAEDVGVYYCSQNTHVPPTFGQGTKVEIERTVAAPSVFIFPPSDEQLKSGTASVVCLLNNFYPREAKVQWKVDNALQSGNSQESVTEQDSKDSTYSLSSTLTLSKADYEKHKVYACEVTHQGLSSPVTKSFNRGEC
notes: as for B1
As for B2, the He/Con_1a in assay [1] is 112 % of HeCon Ab (GpH7-A5/GpH7-B3/GpL16-k0 = 100). Besides, the He/Con_2b in assay [2] was 84.3 % of HeCon Ab (GpH7-A5/GpH7-B3/GpL16-k0 = 100).

B3: GpH7-A5/GpH7-B3 variant Y300_07I/GpL16-k0 (antibody, human IgG1, kappa)
heavy 1: not shown
heavy 2: not shown
light: DIVMTQSPLSLPVTPGEPASISCQASESLVHSNRNTYLHWYLQKPGQSPQLLIYKVSNRFSGVPDRFSGSGSGTDFTLKISRVEAEDVGVYYCSQNTHVPPTFGQGTKVEIERTVAAPSVFIFPPSDEQLKSGTASVVCLLNNFYPREAKVQWKVDNALQSGNSQESVTEQDSKDSTYSLSSTLTLSKADYEKHKVYACEVTHQGLSSPVTKSFNRGEC
notes: as for B1
Turning to B3, the He/Con_1a in assay [1] was 108 % of HeCon Ab (GpH7-A5/GpH7-B3/GpL16-k0 = 100). For the same molecule, the He/Con_2b in assay [2] is 74.5 % of HeCon Ab (GpH7-A5/GpH7-B3/GpL16-k0 = 100).

B4: GpH7-A5/GpH7-B3 variant Y300_12R/GpL16-k0 (antibody, human IgG1, kappa)
heavy 1: not shown
heavy 2: not shown
light: DIVMTQSPLSLPVTPGEPASISCQASESLVHSNRNTYLHWYLQKPGQSPQLLIYKVSNRFSGVPDRFSGSGSGTDFTLKISRVEAEDVGVYYCSQNTHVPPTFGQGTKVEIERTVAAPSVFIFPPSDEQLKSGTASVVCLLNNFYPREAKVQWKVDNALQSGNSQESVTEQDSKDSTYSLSSTLTLSKADYEKHKVYACEVTHQGLSSPVTKSFNRGEC
notes: as for B1
As to B4, the He/Con_1a in assay [1] is 105 % of HeCon Ab (GpH7-A5/GpH7-B3/GpL16-k0 = 100). The He/Con_2b in assay [2] was 41.2 % of HeCon Ab (GpH7-A5/GpH7-B3/GpL16-k0 = 100).

B5: GpH7-A5/GpH7-B3 variant Y296_19Q/GpL16-k0 (antibody, human IgG1, kappa)
heavy 1: not shown
heavy 2: not shown
light: DIVMTQSPLSLPVTPGEPASISCQASESLVHSNRNTYLHWYLQKPGQSPQLLIYKVSNRFSGVPDRFSGSGSGTDFTLKISRVEAEDVGVYYCSQNTHVPPTFGQGTKVEIERTVAAPSVFIFPPSDEQLKSGTASVVCLLNNFYPREAKVQWKVDNALQSGNSQESVTEQDSKDSTYSLSSTLTLSKADYEKHKVYACEVTHQGLSSPVTKSFNRGEC
notes: as for B1
Regarding B5, the He/Con_1a in assay [1] is 112 % of HeCon Ab (GpH7-A5/GpH7-B3/GpL16-k0 = 100). Moreover, the He/Con_2b in assay [2] was 89.3 % of HeCon Ab (GpH7-A5/GpH7-B3/GpL16-k0 = 100).

B6: GpH7-A5/GpH7-B3 variant Y296_11K/GpL16-k0 (antibody, human IgG1, kappa)
heavy 1: not shown
heavy 2: not shown
light: DIVMTQSPLSLPVTPGEPASISCQASESLVHSNRNTYLHWYLQKPGQSPQLLIYKVSNRFSGVPDRFSGSGSGTDFTLKISRVEAEDVGVYYCSQNTHVPPTFGQGTKVEIERTVAAPSVFIFPPSDEQLKSGTASVVCLLNNFYPREAKVQWKVDNALQSGNSQESVTEQDSKDSTYSLSSTLTLSKADYEKHKVYACEVTHQGLSSPVTKSFNRGEC
notes: as for B1
With B6, the He/Con_1a in assay [1] is 105 % of HeCon Ab (GpH7-A5/GpH7-B3/GpL16-k0 = 100). Further, the He/Con_2b in assay [2] was 72.8 % of HeCon Ab (GpH7-A5/GpH7-B3/GpL16-k0 = 100).

B7: GpH7-A5/GpH7-B3 variant Y296_18N/GpL16-k0 (antibody, human IgG1, kappa)
heavy 1: not shown
heavy 2: not shown
light: DIVMTQSPLSLPVTPGEPASISCQASESLVHSNRNTYLHWYLQKPGQSPQLLIYKVSNRFSGVPDRFSGSGSGTDFTLKISRVEAEDVGVYYCSQNTHVPPTFGQGTKVEIERTVAAPSVFIFPPSDEQLKSGTASVVCLLNNFYPREAKVQWKVDNALQSGNSQESVTEQDSKDSTYSLSSTLTLSKADYEKHKVYACEVTHQGLSSPVTKSFNRGEC
notes: as for B1
With B7, the He/Con_1a in assay [1] was 106 % of HeCon Ab (GpH7-A5/GpH7-B3/GpL16-k0 = 100). For the same molecule, the He/Con_2b in assay [2] is 91.5 % of HeCon Ab (GpH7-A5/GpH7-B3/GpL16-k0 = 100).

B8: GpH7-A5/GpH7-B3 variant Y300_08L/GpL16-k0 (antibody, human IgG1, kappa)
heavy 1: not shown
heavy 2: not shown
light: DIVMTQSPLSLPVTPGEPASISCQASESLVHSNRNTYLHWYLQKPGQSPQLLIYKVSNRFSGVPDRFSGSGSGTDFTLKISRVEAEDVGVYYCSQNTHVPPTFGQGTKVEIERTVAAPSVFIFPPSDEQLKSGTASVVCLLNNFYPREAKVQWKVDNALQSGNSQESVTEQDSKDSTYSLSSTLTLSKADYEKHKVYACEVTHQGLSSPVTKSFNRGEC
notes: as for B1
B8: the He/Con_1a in assay [1] is 113 % of HeCon Ab (GpH7-A5/GpH7-B3/GpL16-k0 = 100). Also, the He/Con_2b in assay [2] was 73.6 % of HeCon Ab (GpH7-A5/GpH7-B3/GpL16-k0 = 100).

B9: GpH7-A5/GpH7-B3 variant Y296_16H/GpL16-k0 (antibody, human IgG1, kappa)
heavy 1: not shown
heavy 2: not shown
light: DIVMTQSPLSLPVTPGEPASISCQASESLVHSNRNTYLHWYLQKPGQSPQLLIYKVSNRFSGVPDRFSGSGSGTDFTLKISRVEAEDVGVYYCSQNTHVPPTFGQGTKVEIERTVAAPSVFIFPPSDEQLKSGTASVVCLLNNFYPREAKVQWKVDNALQSGNSQESVTEQDSKDSTYSLSSTLTLSKADYEKHKVYACEVTHQGLSSPVTKSFNRGEC
notes: as for B1
Turning to B9, the He/Con_1a in assay [1] was 106 % of HeCon Ab (GpH7-A5/GpH7-B3/GpL16-k0 = 100). The He/Con_2b in assay [2] was 92.2 % of HeCon Ab (GpH7-A5/GpH7-B3/GpL16-k0 = 100).
